Patent publication US20240076348A1

Molecular target: Colony-stimulating factor-1 receptor (CSF-1R), encoded by c-fms (UniProt P07333)
Assay: cell-based or functional assay

C34B pCAR (CSF1-28z plus IL34-41BB), expressed on human T-cells (from UniProt P09603 33-190; Q6ZMJ4 21-242)
tumour cell killing on repeated re-stimulation, MTT assay on T47D FMS and T47D monolayers (iterative cycles of re-stimulation): < 13
